Data published in patent publication US20260250737A1, “Engineered Luciferases and Luciferin Substrates” (Monod Bio, Inc., priority 2023, published 2026).

System: SmLux
Assay: Computationally generated LgLux variants expressed in E. coli, tested in lysates with SmLux and substrate 1c
Assay type: biochemical
Procedure: LgLux sequences were designed computationally, and their activity measured as depicted schematically in FIG. 45.
A library of the computationally generated LgLux variants were expressed in E. coli and tested in lysates. 20 uM of SmLux and 50 uM of substrate 1c was used for the screening.
LgLux_4039 sequence is as set forth in SEQ ID NO:2773. MBIO-5103 through MBIO-5124, MBIO-5261 through MBIO-5295, MBIO-5101, and MBIO-5102 (SEQ ID NO:2815-SEQ ID NO:2873, respectively) are computationally generated LgLux. The sequences and activity of these LgLux are shown below in Table 21.
MBIO-5358 and MBIO-5360 through MBIO-5381 (SEQ ID NO:2774-SEQ ID NO:2796, respectively) are computationally generated LgLux.

[1] = 20 uM SmLux, 50 uM substrate 1c
[2] = 50 uM substrate 1c, before SmLux peptide addition
[3] = Table 22, 20 uM SmLux, 50 uM substrate 1c

Molecule	Fold change upon SmLux peptide addition [1]	Baseline Signal (Normalized by expression) [2]	Fold change upon SmLux peptide addition [3]	Baseline Signal (Normalized by expression) (Table 22, 50 uM substrate 1c)
5122 (protein) MTPEEIFANVKAFYAALASGDLAAAKALFDPGTTITLWDGTTFTSLDEFLAWFEKQFKASKDAKREILSMEVEGDTVRVLVRLTYVKDGKEEVVDLLQLIKWV	1.04	146.2		
5121 (protein) MTPEEIKENVKKFYEALASGDLETAKSLFDPGTTITLWDGTTFTSLEEFLAWFEKQFDASKDAKREIVSMEIKGNEVKVLVRLTYTKDGKEQTVDLLQLLKFV	1.29	126.6		
MBIO-5381: computationally generated LgLux, SEQ ID NO 2796 (protein) MTPEERIANVLAFYAALASGDLEAAKALFNPGVTITLWDGTTFTSVEEFRAWFEEQFKTSKDALREIESIEVDGDTVRVLVRLTFVRDGEEKVVDLLQLFKFV			22.28	158.6
MBIO-5360: computationally generated LgLux, SEQ ID NO 2775 (protein) MTPEELIANVLAFYAALASGDLVAAKALFNPGVTITLWDGTTFTSVEEFRAWFETQFKTSKDALREIESIEVDGDTVRVLVRLTFVRDGEEQVVDLLQLFKFV			3.64	150.2
MBIO-5361: computationally generated LgLux, SEQ ID NO 2776 (protein) MTPEELIANVLAFYAALASGDLVAAKALFNSGVTITLWDGATFTSIEKFRAWFDTQFKTSKDALREIESIEVDGDTVRVLVRLTFVSDGEEQVVDLLQLFKFV			5.17	156.4
5124 (protein) MTPEEIIANVRAFYAALASGDLEAAKALFDPGTTITLWDGTTFTSLEEFLAWFEKQFDASKDAKREIVSIEVEGDTVRVLVRLTYTKDGKEQVVDLLQLLKFV	1.07	187.6		
MBIO-5377: computationally generated LgLux, SEQ ID NO 2792 (protein) MTPEERIADVRAFYAALASGDLEAAKALFDPGVTITLWDGTTFTSVEEFRAWFEEQFKTSKDALREIESIEVDGDTVRVLVRLSFTRNGQKHTVDLLQQFKFI			205.44	324.4
MBIO-5364: computationally generated LgLux, SEQ ID NO 2779 (protein) MTPEERIANVRAFYAALASGDLEAAKALFDPGVTITLWDGTTFTSVEEFRAWFEEQFKTSKDALREIESIEVDGDTVRVLVRLSFTRNGQKHTVDLLQLFKFV			172.59	376.8
MBIO-5378: computationally generated LgLux, SEQ ID NO 2793 (protein) MTPEERIADVRAFYAALASGDLEAAKALFDPGVTITLWDGTTFTSVEEFRAWFEEQFKTSKDALREIESIEVDGDTVRVLVRLTFVRDGEEKVVDLLQQFKFI			85.83	197
MBIO-5380: computationally generated LgLux, SEQ ID NO 2795 (protein) MTPEERIADVRAFYAALASGDLEAAKALFDPGVTITLWDGTTFTSVEEFRAWFEEQFKTSKDALREIESIEVDGDTVRVLVRLTFVRDGEEKVVDLLQLFKFV			157.38	322.6
MBIO-5362: computationally generated LgLux, SEQ ID NO 2777 (protein) MTPEERIANVLAFYAALASGDLEAAAALFNPGVTITLWDGTTFTSVEEFRAWFEEQFKTSKDALREIESIEVDGDTVRVLVRLSFTRNGQKHTVDLLQLFKFV			27.24	906.4
MBIO-5363: computationally generated LgLux, SEQ ID NO 2778 (protein) MTPEERIANVLAFYAALASGDLEAAKALFNPGVTITLWDGTTFTSVEEFRAWFEEQFKTSKDALREIESIEVDGDTVRVLVRLSFTRNGQKHTVDLLQLFKFV			32.23	339.2
MBIO-5379: computationally generated LgLux, SEQ ID NO 2794 (protein) MTPEERIADVRAFYAALASGDLEAAKALFDPGVTITLWDGTTFTSVEEFRAWFEEQFKTSKDALREIESIEVDGDTVRVLVRLTFVRDGEEKVVDLLQLFKFI			176.25	338.4
MBIO-5365: computationally generated LgLux, SEQ ID NO 2780 (protein) MTPEELRQNLLRFYEALDSGDAVAAASLFNPGVTITLWDGTTFTSVEEFREWFETQFKTSKDALREIESLEVDGDTVRVTVRLTFTRDGEEQVVDLLQLFKFV			359.8	1452.6
MBIO-5366: computationally generated LgLux, SEQ ID NO 2781 (protein) MTPEELRQNLLRFYEALDSGDAVAAKSLFNPGVTITLWDGTTFTSVEEFREWFETQFKTSKDALREIESLEVDGDTVRVTVRLTFTRDGEEQVVDLLQLFKFV			32.61	931.2
MBIO-5370: computationally generated LgLux, SEQ ID NO 2785 (protein) MTPEEIRQNLRRFYEALDSGDAEAAKSLFDPGVTITLWDGTTFTSVEEFREWFEEQFKTSKDALREIESLEVDGDTVRVTVRLTFTRDGEEKVVDLLQLFKFV			390.25	4567
MBIO-5369: computationally generated LgLux, SEQ ID NO 2784 (protein) MTPEEIRQNLLRFYEALDSGDAEAAKSLFNPGVTITLWDGTTFTSVEEFREWFEEQFKTSKDALREIESLEVDGDTVRVTVRLTFTRDGEEKVVDLLQLFKFV			289.49	760
MBIO-5367: computationally generated LgLux, SEQ ID NO 2782 (protein) MTPEELRQNLLRFYEALDSGDAVAAASLFNSGVTITLWDGATFTSIEKFREWFDTQFKTSKDALREIESLEVDGDTVRVTVRLTFTSDGEEQVVDLLQLFKFV			6.08	231.6
MBIO-5368: computationally generated LgLux, SEQ ID NO 2783 (protein) MTPEELRQNLLRFYEALDSGDAVAAKSLFNSGVTITLWDGATFTSIEKFREWFDTQFKTSKDALREIESLEVDGDTVRVTVRLTFTSDGEEQVVDLLQLFKFV			4.95	366.8
5123 (protein) MTPEKIRENVENFYAALASGDLEKAKALFDPGTTITLWDGTTFTSLEEFLAWFEKQFKASKDAKREIKSLEIEGDTVKVLVRLTYTVNGKEKTVDLLQLLKFV	1.09	145.6		
MBIO-5358: computationally generated LgLux, SEQ ID NO 2774 (protein) MSEEQIRQDLLRFYEALDSGDAITAASLFNPGVTITLWDGTTFTSVEEFREWFESQFSTSKDALREISSLEVRGDTVEVTVRLSFTRNGQKHTVDLLQQFKFI			243.66	440.6
5120 (protein) MTPEEIRENVLRFYEALASGDLETAKALFDPGTTITLWDGTTFTSLEEFLAWFEEQFDTSKDAKREILSLEIEGDVVRVLVRLTYVKDGEEKVVDLLQLLKWV	1.09	148.4		
